Test results reported in patent publication US20190203279A1 (NAVINCI DIAGNOSTICS, published 2019).

Molecular target: T1, β-catenin (UniProt P35222 2-781)
T1 construct: Endogenous protein in A549 cells; also called beta-catenin
T1 sequence (looked up): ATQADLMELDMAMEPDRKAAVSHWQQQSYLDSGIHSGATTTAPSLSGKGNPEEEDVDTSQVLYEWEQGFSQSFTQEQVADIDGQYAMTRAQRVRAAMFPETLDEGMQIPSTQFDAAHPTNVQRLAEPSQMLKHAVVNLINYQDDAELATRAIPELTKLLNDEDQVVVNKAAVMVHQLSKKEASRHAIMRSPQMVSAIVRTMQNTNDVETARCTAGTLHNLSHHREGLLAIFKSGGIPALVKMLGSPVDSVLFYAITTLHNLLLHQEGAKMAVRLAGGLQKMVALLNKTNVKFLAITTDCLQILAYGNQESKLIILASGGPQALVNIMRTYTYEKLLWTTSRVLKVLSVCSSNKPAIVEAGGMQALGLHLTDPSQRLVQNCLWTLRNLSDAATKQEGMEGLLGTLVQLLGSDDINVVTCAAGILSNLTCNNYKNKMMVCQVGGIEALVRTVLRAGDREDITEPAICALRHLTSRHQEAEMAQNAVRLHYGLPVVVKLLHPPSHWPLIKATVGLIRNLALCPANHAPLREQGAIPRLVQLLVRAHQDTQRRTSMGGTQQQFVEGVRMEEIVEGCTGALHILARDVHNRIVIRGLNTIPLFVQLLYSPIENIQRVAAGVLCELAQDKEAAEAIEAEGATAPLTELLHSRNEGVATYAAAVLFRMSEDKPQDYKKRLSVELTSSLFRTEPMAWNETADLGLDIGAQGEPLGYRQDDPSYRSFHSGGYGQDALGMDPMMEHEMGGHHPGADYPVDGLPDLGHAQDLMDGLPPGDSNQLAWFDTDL
Assay: in situ proximity-based RCA assay on fixed A549 cells with anti-E-cadherin and anti-β-catenin primary antibodies and oligonucleotide-conjugated secondary antibodies
Experimental: A proximity-based detection assay was performed to detect a protein-protein complex in situ. Frozen A549 cells fixed on a microscopy slide were thawed and incubated with PBS+0.2% Triton X-100 for 5 minutes to permeabilise the cell membranes. Slides were incubated with 30 μl Olink blocking buffer for 60 minutes at 37° C. in a humidity chamber. Primary antibodies were diluted in Olink Antibody diluent (mouse IgG anti E-cadherin 1:100, rabbit IgG anti β-catenin 1:200). Blocking buffer was removed and 15 μl of each antibody solution was added and incubated overnight at 4° C. Slides were washed, and incubated with 30 μl 20 nM secondary antibodies conjugated to oligonucleotides (nucleic acid probe and activator molecule) for 60 minutes at 37° C. in a humidity chamber. Following incubation, slides were washed and incubated with 30 μl RCA mix (Phi29 buffer, BSA, PolyA, dNTPs, UNG, Hoechst, Texas Red labelled detection oligonucleotide and Phi29 polymerase) for 100 minutes at 37° C. in a humidity chamber. Slides were washed at room temperature and allowed to try, before being contacted with SlowFade mounting media and a coverslip applied and incubated for 15 minutes in the dark. All samples were analysed at the same magnification and exposure time (FIG. 18). […]

B1: E-cadherin (other, UniProt P12830 155-882, looked up)
chain: DWVIPPISCPENEKGPFPKNLVQIKSNKDKEGKVFYSITGQGADTPPVGVFIIERETGWLKVTEPLDRERIATYTLFSHAVSSNGNAVEDPMEILITVTDQNDNKPEFTQEVFKGSVMEGALPGTSVMEVTATDADDDVNTYNAAIAYTILSQDPELPDKNMFTINRNTGVISVVTTGLDRESFPTYTLVVQAADLQGEGLSTTATAVITVTDTNDNPPIFNPTTYKGQVPENEANVVITTLKVTDADAPNTPAWEAVYTILNDDGGQFVVTTNPVNNDGILKTAKGLDFEAKQQYILHVAVTNVVPFEVSLTTSTATVTVDVLDVNEAPIFVPPEKRVEVSEDFGVGQEITSYTAQEPDTFMEQKITYRIWRDTANWLEINPDTGAISTRAELDREDFEHVKNSTYTALIIATDNGSPVATGTGTLLLILSDVNDNAPIPEPRTIFFCERNPKPQVINIIDADLPPNTSPFTAELTHGASANWTIQYNDPTQESIILKPKMALEVGDYKINLKLMDNQNKDQVTTLEVSVCDCEGAAGVCRKAQPVEAGLQIPAILGILGGILALLILILLLLLFLRRRAVVKEPLLPPEDDTRDNVYYYDEEGGGEEDQDFDLSQLHRGLDARPEVTRNDVAPTLMSVPRYLPRPANPDEIGNFIDENLKAADTDPTAPPYDSLLVFDYEGSGSEAASLSSLNSSESDKDQDYDYLNEWGNRFKKLADMYGGGEDD
notes: whole, on cells; Endogenous protein in A549 cells
Question: Does B1 bind?
Answer: binds
